B1: CPEB3 Ribozyme (parent)
chain: UAACAGGGGGCCACAGCAGAAGCGUUCACGUCGCAGCCCCUGUCAGAUUCUGGUGAAUCUGCGAAUUCUGCUGUAUAUCUC

Variants of: B1
Test: self-cleavage, relative activity (ratio to wild type); higher = more cleavage; in vitro, sequencing
Summary of the method: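 Relative activity was defined as the cleaved/total read fraction for a variant divided by the same fraction for the unmutated ribozyme. CPEB3 self-cleaving ribozyme libraries were made by rounds of error-prone PCR, barcoded, and transcribed in vitro with T7 RNA polymerase for 5 hours at 37°C, and cleavage ran through transcription plus a 15 min DNase I step before EDTA. Illumina sequencing of template-switched reverse transcripts gave the reads, and DNA sequencing mapped the barcodes. Averages come from three batches, using variants with at least 5 reads.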
For UAACAGGGGGCCACAGCAGAAGCGUUCACGUCGCAGCCCCUGUCAGAUUCUGGUGAAACUGCAAAUUCUGCUGUAUAUCUC, the self-cleavage was 0.59. Variant UAACAGGGGGCCACAGCAGAAGCGUUCACGUCGCAGCCCCUGUCAGAUUCUGGUGAAACUGCGAAUUCUGCUGUAAAUCUC has a self-cleavage of 0.49. Variant UAACAGGGGGCCACAGCAGAAGCGUUCACGUCGCAGCCCCUGUCAGAUUCUGGUGAAACUGCGAAUUCUGCGGUAUAUCUC has a self-cleavage of 0.42. With UAACAGGGGGCCACAGCAGAAGCGUUCACGUCGCAGCCCCUGUCAGAUUCUGGUGAAACUGCGAAUUCUGCAGUAUAUCUC the self-cleavage was 0.38. With UAACAGGGGGCCACAGCAGAAGCGUUCACGUCGCAGCCCCUGUCAGAUUCUGGUGAAACUGCGAAUUCUGCCGUAUAUCUC the self-cleavage was 0.43. Work on UAACAGGGGGCCACAGCAGAAGCGUUCACGUCGCAGCCCCUGUCAGAUUCUGGUGAACCUGCGGAUUCUGCUGUAUAUCUC yielded a self-cleavage of 0.36. UAACAGGGGGCCACAGCAGAAGCGUUCACGUCGCAGCCCCUGUCAGAUUCUGGUGAACCUGCGUAUUCUGCUGUAUAUCUC showed a self-cleavage of 0.33. Variant UAACAGGGGGCCACAGCAGAAGCGUUCACGUCGCAGCCCCUGUCAGAUUCUGGUGAAACGGCGAAUUCUGCUGUAUAUCUC has a self-cleavage of 0.17. Variant UAACAGGGGGCCACAGCAGAAGCGUUCACGUCGCAGCCCCUGUCAGAUUCUGGUGAAACAGCGAAUUCUGCUGUAUAUCUC has a self-cleavage of 0.17. For UAACAGGGGGCCACAGCAGAAGCGUUCACGUCGCAGCCCCUGUCAGAUUCUGGUGAAACCGCGAAUUCUGCUGUAUAUCUC, the self-cleavage was 0.23. UAACAGGGGGCCACAGCAGAAGCGUUCACGUCGCAGCCCCUGUCAGAUUCUGGUGAAACUGCGAACUCUGCUGUAUAUCUC gave a self-cleavage of 0.29. Work on UAACAGGGGGCCACAGCAGAAGCGUUCACGUCGCAGCCCCUGUCAGAUUCUGGUGAAACUGCGAAUUCUGCUAUAUAUCUC yielded a self-cleavage of 1.1. UAACAGGGGGCCACAGCAGAAGCGUUCACGUCGCAGCCCCUGUCAGAUUCUGGUGAACCUGCGAAUUCUGCUGUAUAUCUC showed a self-cleavage of 0.56. UAACAGGGGGCCACAGCAGAAGCGUUCACGUCGCAGCCCCUGUCAGAUUCUGGUGAAACUGCGAAUUCUGCUGCAUAUCUC gave a self-cleavage of 0.67. Variant UAACAGGGGGCCACAGCAGAAGCGUUCACGUCGCAGCCCCUGUCAGAUUCUGGUGAAACUGCGAAUUCUGCUGAAUAUCUC has a self-cleavage of 0.6. With UAACAGGGGGCCACAGCAGAAGCGUUCACGUCGCAGCCCCUGUCAGAUUCUGGUGAAACUGCGAAUUCUGCUGUAUAUCAC the self-cleavage was 0.5. UAACAGGGGGCCACAGCAGAAGCGUUCACGUCGCAGCCCCUGUCAGAUUCUGGUGAAACUGCGAAUUCUGCUGUAUAUCCC gave a self-cleavage of 0.46. UAACAGGGGGCCACAGCAGAAGCGUUCACGUCGCAGCCCCUGUCAGAUUCUGGUGAACCUGCGAGUUCUGCUGUAUAUCUC gave a self-cleavage of 0.27. Work on UAACAGGGGGCCACAGCAGAAGCGUUCACGUCGCAGCCCCUGUCAGAUUCUGGUGAACCUGCGACUUCUGCUGUAUAUCUC yielded a self-cleavage of 0.14. Work on UAACAGGGGGCCACAGCAGAAGCGUUCACGUCGCAGCCCCUGUCAGAUUCUGGUGAACCUGCGAUUUCUGCUGUAUAUCUC yielded a self-cleavage of 0.21. Variant UAACAGGGGGCCACAGCAGAAGCGUUCACGUCGCAGCCCCUGUCAGAUUCUGGUGAAACUGCGAAUUUUGCUGUAUAUCUC has a self-cleavage of 0.23. In the case of UAACAGGGGGCCACAGCAGAAGCGUUCACGUCGCAGCCCCUGUCAGAUUCUGGUGAAACUGCGAAUUCUCCUGUAUAUCUC, the self-cleavage is reported as 0.14. UAACAGGGGGCCACAGCAGAAGCGUUCACGUCGCAGCCCCUGUCAGAUUCUGGUGAAACUGCGAAUUCAGCUGUAUAUCUC showed a self-cleavage of 0.23. UAACAGGGGGCCACAGCAGAAGCGUUCACGUCGCAGCCCCUGUCAGAUUCUGGUGAAACUGCGAAUUCCGCUGUAUAUCUC gave a self-cleavage of 0.28. For UAACAGGGGGCCACAGCAGAAGCGUUCACGUCGCAGCCCCUGUCAGAUUCUGGUGAACCUGAGAAUUCUGCUGUAUAUCUC, the self-cleavage was 0.36. Work on UAACAGGGGGCCACAGCAGAAGCGUUCACGUCGCAGCCCCUGUCAGAUUCUGGUGAACUUGCGAAUUCUGCUGUAUAUCUC yielded a self-cleavage of 0.21. Work on UAACAGGGGGCCACAGCAGAAGCGUUCACGUCGCAGCCCCUGUCAGAUUCUGGUGAAACUGCGAAUACUGCUGUAUAUCUC yielded a self-cleavage of 0.32. Variant UAACAGGGGGCCACAGCAGAAGCGUUCACGUCGCAGCCCCUGUCAGAUUCUGGUGAAACUGCGAAUCCUGCUGUAUAUCUC has a self-cleavage of 0.31. In the case of UAACAGGGGGCCACAGCAGAAGCGUUCACGUCGCAGCCCCUGUCAGAUUCUGGUGAAACUGCGAAUUCUGCUGUAUACCUC, the self-cleavage is reported as 0.42. With UAACAGGGGGCCACAGCAGAAGCGUUCACGUCGCAGCCCCUGUCAGAUUCUGGUGAACCUGCGAAUUCUGCUGUAUCUCUC the self-cleavage was 0.26. With UAACAGGGGGCCACAGCAGAAGCGUUCACGUCGCAGCCCCUGUCAGAUUCUGGUGAACCUGCGAAUUCUGCUGUAUUUCUC the self-cleavage was 0.65. UAACAGGGGGCCACAGCAGAAGCGUUCACGUCGCAGCCCCUGUCAGAUUCUGGUGAACCUGCGAAUUCUGCUGUAUGUCUC showed a self-cleavage of 0.56. In the case of UAACAGGGGGCCACAGCAGAAGCGUUCACGUCGCAGCCCCUGUCAGAUUCUGGUGAACCUGCGAAUUCUGCUGUGUAUCUC, the self-cleavage is reported as 0.46. Work on UAACAGGGGGCCACAGCAGAAGCGUUCACGUCGCAGCCCCUGUCAGAUUCUGGUGAACCUGCGAAUUCUGCUGUUUAUCUC yielded a self-cleavage of 0.7.
